Laboratory results: patent US20090263900

Key:
[1] = tested on: ZFN 2189-11 (synthetic); test: cell_activity; conditions: pair with r2182-8; K562 cells, 50 bp HA linear donor 6.9 ug; targeted integration 2-9.4% over donors, 0% without ZFN
[2] = tested on: ZFN r2182-8 (synthetic); test: cell_activity; conditions: pair with 2189-11; K562 cells, 50 bp HA linear donor 6.9 ug; targeted integration 2-9.4% over donors, 0% without ZFN

| Sequence | activity [1] | activity [2] |
| --- | --- | --- |
| ACTAGGGACAGGATTG (double strand) [AAVS1 2189-11 target half-site] | 9.4 % TI |  |
| CCCCACTGTGGGGTGG (double strand) [AAVS1 r2182-8 target half-site] |  | 9.4 % TI |
